Data taken from the supplement of paper PMC9112550, “Optimization of the antimicrobial peptide Bac7 by deep mutational scanning” (BMC Biology, 2022).

System: Escherichia coli TOP10
Assay: shrunken log2 fold change of peptide-encoding DNA abundance (4.5 h post-induction vs induction); higher = less antimicrobial activity (less host growth inhibition)
Details: time post-induction: 4.5 h; library: site-saturation at positions 5, 18, 19, 20
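Also: peptides expressed intracellularly from a pBAD plasmid library in pooled LB shake-flask culture, induced with 0.3% L-arabinose, DNA abundance read by NGS, three biological replicates, DESeq2 with apeglm shrinkage.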

Sequence	shrunken log2 fold change
RRIRHRPPRLPRPRPRPPSHPRP	-0.139
RRIRERPPRLPRPRPRPEPFPRP	-0.0469
RRIRRRPPRLPRPRPRPHWVPRP	0.0391
RRIRYRPPRLPRPRPRPISGPRP	0.0356
RRIRKRPPRLPRPRPRPFIYPRP	-0.144
RRIRNRPPRLPRPRPRPYCSPRP	-0.0619
RRIRKRPPRLPRPRPRPGTKPRP	0.0906
RRIRQRPPRLPRPRPRPRDGPRP	0.666
RRIRRRPPRLPRPRPRPSAAPRP	1.13
RRIRMRPPRLPRPRPRPSMTPRP	2.18
RRIRDRPPRLPRPRPRPAGIPRP	-0.00461
RRIRNRPPRLPRPRPRPMIIPRP	0.0546
RRIRRRPPRLPRPRPRPWSPPRP	0.186
RRIRYRPPRLPRPRPRPHQKPRP	-0.248
RRIRLRPPRLPRPRPRPNSQPRP	-0.32
RRIRHRPPRLPRPRPRPIGDPRP	-0.00136
RRIRYRPPRLPRPRPRPWRIPRP	-0.297
RRIRKRPPRLPRPRPRPHSQPRP	-0.142
RRIRRRPPRLPRPRPRPADYPRP	-0.0547
RRIRARPPRLPRPRPRPQITPRP	0.118

Sequence	shrunken log2 fold change
RRIRCRPPRLPRPRPRPVKFPRP	-0.192
RRIRLRPPRLPRPRPRPPIPPRP	0.316
RRIRLRPPRLPRPRPRPPYNPRP	-0.689
RRIRYRPPRLPRPRPRPLHPPRP	-0.0607
RRIRCRPPRLPRPRPRPENIPRP	-1.32
RRIRVRPPRLPRPRPRPCPNPRP	-0.245
RRIRRRPPRLPRPRPRPEILPRP	0.14
RRIRHRPPRLPRPRPRPVREPRP	0.522
RRIRCRPPRLPRPRPRPDAGPRP	0.122
RRIRHRPPRLPRPRPRPQEDPRP	-0.106
RRIRFRPPRLPRPRPRPGHEPRP	-0.196
RRIRRRPPRLPRPRPRPCNRPRP	-0.509
RRIRNRPPRLPRPRPRPAYEPRP	-0.0122
RRIRIRPPRLPRPRPRPHHKPRP	-1.18
RRIRPRPPRLPRPRPRPIRDPRP	-0.015
RRIRVRPPRLPRPRPRPLTCPRP	-0.187
RRIRSRPPRLPRPRPRPMDGPRP	-0.095
RRIRYRPPRLPRPRPRPNYQPRP	-0.79
RRIRVRPPRLPRPRPRPFHVPRP	-0.262
RRIRSRPPRLPRPRPRPPIGPRP	0.297

Sequence	shrunken log2 fold change
RRIRRRPPRLPRPRPRPDHWPRP	-0.136
RRIRMRPPRLPRPRPRPWPRPRP	1.25
RRIRPRPPRLPRPRPRPHYTPRP	-0.516
RRIRSRPPRLPRPRPRPTCRPRP	-0.0471
RRIRKRPPRLPRPRPRPRRTPRP	0.443
RRIRGRPPRLPRPRPRPFFRPRP	0.211
RRIRMRPPRLPRPRPRPLILPRP	-0.429
RRIRRRPPRLPRPRPRPDENPRP	0.118
RRIRIRPPRLPRPRPRPSKLPRP	-1.04
RRIRRRPPRLPRPRPRPVCLPRP	0.149
RRIRDRPPRLPRPRPRPLNEPRP	-0.188
RRIRWRPPRLPRPRPRPGICPRP	0.146
RRIRFRPPRLPRPRPRPCELPRP	0.00618
RRIRTRPPRLPRPRPRPHIRPRP	-0.271
RRIRTRPPRLPRPRPRPCHEPRP	-0.0167
RRIRDRPPRLPRPRPRPILPPRP	0.0106
RRIRWRPPRLPRPRPRPDAWPRP	0.884
RRIRLRPPRLPRPRPRPVCLPRP	-0.0821
RRIRMRPPRLPRPRPRPSKCPRP	-0.0848
RRIRYRPPRLPRPRPRPMQCPRP	-0.00134
